Measurements published in paper doi:10.1101/2021.04.22.440356 (bioRxiv, 2021).

Target: T1, yeast ubiquitin hydrolase 1 (YUH1) (S. cerevisiae, UniProt P35127 1-236)
T1 sequence (looked up): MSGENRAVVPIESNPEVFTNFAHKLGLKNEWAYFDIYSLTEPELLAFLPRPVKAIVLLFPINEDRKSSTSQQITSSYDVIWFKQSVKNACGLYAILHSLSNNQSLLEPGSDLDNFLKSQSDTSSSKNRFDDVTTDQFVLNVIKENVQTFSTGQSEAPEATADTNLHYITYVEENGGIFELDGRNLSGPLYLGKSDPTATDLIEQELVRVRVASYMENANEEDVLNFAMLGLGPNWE
Assay: NMR 1H-15N TROSY spectra of the complex

- binding result: binds
B1: yeast ubiquitin (natural protein)
chain: not shown
modifications: 2H,15N-labelled
